Among the data in the supplement of paper PMC10126150 are switch fluorescence ratio values, retold here.

± gives the standard deviation of the averaged measurements.

This data set concerns ATP. As to the kind of experiment: switch fluorescence ratio, 500 uM ATP over buffer (Cy3 cluster intensity, sum of 5 cycles each) (fold (ratio)); higher = stronger signal-on switching upon ATP binding; sequences stand for … in TCGTCGGCAGCGTCAGATGTGTATAAGAGACAGTTTTTTTTTTTTTTTTTTTTTTTTT…TC. As to conditions: aptamer strand: ATP DNA aptamer (quencher-CACCTGGGGGAGTATTGCGGAGGAAGG + anchor), 100 nM annealed; ATP concentration: 500 uM. The procedure, abridged: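 For every switch-domain sequence, the fluorescence ratio is the mean of per-cluster values, each being summed target-cycle Cy3 intensity over summed buffer-cycle Cy3 intensity. Clusters outside 100-1000 RFU were excluded. On a modified Illumina MiSeq flow-cell, the Cy3-labelled switching-strand clusters were annealed to 100 nM quencher-labelled ATP aptamer, imaged in selection buffer and then after 15 min with 500 uM ATP at 22 °C. Five such cycles were run, with NaOH stripping and re-annealing between them.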
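Also: ATP exposure 15 min at 22 °C before imaging.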

On to CCGGTCTACA, for which the switch fluorescence ratio amounted to 1.05 ± 0.047.
The result for CCGGTGAGGG reads 0.999 ± 0.05; that for CCGGTGCCAA, 3.85 ± 0.21.
For CCGGTGTAGA, the switch fluorescence ratio came to 1.01 ± 0.034.
The result for CCGGTGTTTG reads 0.987 ± 0.021.
As to CCGGTGTTTT, the switch fluorescence ratio is 1.06 ± 0.041.
For CCGGTTTGGA the value was 1.13 ± 0.17; for CCGGTTTGGC, 1.062 ± 0.006.
The result for CCGGTTTTTT reads 1.003 ± 0.0078; that for CCGTAATAGG, 4.83 ± 0.55; that for CCGTAATCAG, 1.98 ± 0.14.
Turning to CCGTAATGTG, the switch fluorescence ratio was 1.5 ± 0.16.
The result for CCGTAGGAGG reads 1 ± 0.021; that for CCGTATATCC, 2.44 ± 0.16.
Consider CCGTCGAATA, for which the switch fluorescence ratio came to 2.2 ± 0.027.
Take CCGTCGATGG: the switch fluorescence ratio was found to be 1.1 ± 0.036.
With CCGTGAGGGT, the switch fluorescence ratio worked out at 1.02 ± 0.038.
For CCGTGGGACC the value was 1.11 ± 0.016; for CCGTGGGTAC, 5.55 ± 0.7; for CCGTGGTACC, 1.84 ± 0.12.
For CCGTGGTTTT the value was 0.99133 ± 5.8e-05; for CCGTGTAAGC, 1.343 ± 0.0024; for CCGTGTTCGA, 1.01 ± 0.051.
Consider CCGTTAGTAA, for which the switch fluorescence ratio was 3.13 ± 0.46.
On to CCGTTCGACA, for which the switch fluorescence ratio came to 1.37 ± 0.058.
With CCGTTGACCT, the switch fluorescence ratio turned out to be 1.073 ± 0.01.
For CCGTTGAGTC the value was 1.06 ± 0.049; for CCGTTGGGGG, 1.01 ± 0.036; for CCGTTGTGGA, 1.038 ± 0.0027.
Turning to CCGTTGTTCG, the switch fluorescence ratio stood at 1.02 ± 0.027.
As for CCGTTGTTTG, the switch fluorescence ratio is 0.979 ± 0.011.
As for CCGTTTATAT, the switch fluorescence ratio is 1.4 ± 0.13.
With CCGTTTTTAC, the switch fluorescence ratio was determined as 4.11 ± 0.83.
Turning to CCGTTTTTAT, the switch fluorescence ratio was determined as 1.01 ± 0.018.
For CCTAAAAAGG the value was 1.26 ± 0.29; for CCTAAAGGCT, 1.0151 ± 4.7e-05.
For CCTAAGTGTT the value was 1.06 ± 0.069.
Consider CCTAATCGGT, for which the switch fluorescence ratio worked out at 1.006 ± 0.0095.
The result for CCTAATGCCG reads 0.996 ± 0.04; that for CCTAGGGAAG, 0.9972 ± 0.0046.
The result for CCTAGTAGCG reads 1.01 ± 0.014; that for CCTAGTTGGC, 1.03 ± 0.083.
For the sequence CCTATAATAG, the switch fluorescence ratio was 1.17 ± 0.064.
CCTATAATAT: the switch fluorescence ratio stood at 1.05 ± 0.024.
As for CCTCAAAAAA, the switch fluorescence ratio stood at 2.98 ± 0.2.
The result for CCTCATGACA reads 1.263 ± 0.0096.
In the case of CCTCATGGCA, the switch fluorescence ratio came to 2.11 ± 0.17.
As to CCTCATTGGT, the switch fluorescence ratio amounted to 1.026 ± 0.0093.
For CCTCGACAGC the value was 3.43 ± 0.42; for CCTCGCGGGG, 1.08 ± 0.032; for CCTCGGTATG, 1.24 ± 0.025.
The result for CCTCGTGTTT reads 1.08 ± 0.0061; that for CCTCGTTGAA, 1.22 ± 0.026.
For CCTCTACG the value was 1.41 ± 0.044; for CCTGAGAACA, 1.02 ± 0.031.
Turning to CCTGAGACAC, the switch fluorescence ratio was 1.08 ± 0.052.
The result for CCTGAGGGAT reads 1.86 ± 1.4; that for CCTGAGTCTG, 1.57 ± 0.038.
In the case of CCTGCTGTCC, the switch fluorescence ratio was 1.16 ± 0.051.
With CCTGGAAGCG, the switch fluorescence ratio was found to be 1.08 ± 0.045.
The result for CCTGGAGGGG reads 1.07 ± 0.066.
Take CCTGGATCGG: the switch fluorescence ratio stood at 1.09 ± 0.048.
With CCTGGCGCTT, the switch fluorescence ratio was 2.06 ± 0.86.
For CCTGGCGGCT the value was 1.06 ± 0.018.
For CCTGGGAAGG the value was 0.991 ± 0.025; for CCTGGGGCAG, 1.17 ± 0.093.
